# According to patent US20230250176A1 (DRAGONFLY THERAPEUTICS, published 2023):
# Positions count from the first letter of the chain named.
# T1: recombinant cynomolgus monkey NKG2D (cynomolgus monkey, UniProt P61252 78-216, limits assumed)
# T1 sequence (looked up): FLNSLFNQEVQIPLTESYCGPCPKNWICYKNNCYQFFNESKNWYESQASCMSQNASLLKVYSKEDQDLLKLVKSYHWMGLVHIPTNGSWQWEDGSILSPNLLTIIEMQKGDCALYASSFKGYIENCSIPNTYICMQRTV
# T2: purified recombinant human NKG2D (human, UniProt P26718 78-216, limits assumed)
# T2 sequence (looked up): T1 sequence (looked up) with N38D, I128T
# T3: recombinant rat NKG2D (rat, UniProt O70215 75-215, limits assumed)
# T3 sequence (looked up): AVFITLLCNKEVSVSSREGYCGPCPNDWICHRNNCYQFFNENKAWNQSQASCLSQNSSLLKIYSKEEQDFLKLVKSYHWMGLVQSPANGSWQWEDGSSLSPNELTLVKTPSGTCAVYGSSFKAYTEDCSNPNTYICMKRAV
# T4: recombinant mouse NKG2D (mouse, UniProt O54709 94-232, limits assumed)
# T4 sequence (looked up): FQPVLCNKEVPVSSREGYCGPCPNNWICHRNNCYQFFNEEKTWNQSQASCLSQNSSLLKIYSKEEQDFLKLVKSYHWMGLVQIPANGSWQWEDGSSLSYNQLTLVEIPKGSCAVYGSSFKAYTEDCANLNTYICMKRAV
# T5: human NKG2D on cells (human, UniProt P26718 1-216)
# T5 construct: whole, on cells; also called NKG2D on KHYG-1 parental cells; NKG2D on CD8+ T cells and NK cells
# T5 sequence (looked up): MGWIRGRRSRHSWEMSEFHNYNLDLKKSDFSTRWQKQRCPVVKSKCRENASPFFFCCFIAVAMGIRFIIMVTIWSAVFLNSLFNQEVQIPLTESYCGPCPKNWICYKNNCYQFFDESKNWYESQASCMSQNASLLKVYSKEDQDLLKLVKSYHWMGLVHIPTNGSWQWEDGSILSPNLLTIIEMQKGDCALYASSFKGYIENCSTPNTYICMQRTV
# B1: EGFR-TriNKET (bispecific antibody, human IgG1, kappa)
# chain: DIQMTQSPSSLSASVGDRVTITCQASQDISNYLNWYQQKPGKAPKLLIYDASNLETGVPSRFSGSGSGTDFTFTISSLQPEDIATYYCQHFRHLPLAFGCGTKVEIKGGGGSGGGGSGGGGSGGGGSQVQLQESGPGLVKPSETLSLTCTVSGGSVSSGDYYWTWIRQSPGKCLEWIGHIYYSGNTNYNPRLKSRLTISIDTSKTQFSLKLSSVTAADTAIYYCVRDRVTGAFDIWGQGTMVTVSSGSDKTHTCPPCPAPELLGGPSVFLFPPKPKDTLMISRTPEVTCVVVDVSHEDPEVKFNWYVDGVEVHNAKTKPREEQYNSTYRVVSVLTVLHQDWLNGKEYKCKVSNKALPAPIEKTISKAKGQPREPRVYTLPPCRDELTKNQVSLTCLVKGFYPSDIAVEWESNGQPENNYKTTPPVLVSDGSFTLYSKLTVDKSRWQQGNVFSCSVMHEALHNHYTQKSLSLSPG
# heavy: EVQLVESGGGLVKPGGSLRLSCAASGFTFSSYSMNWVRQAPGKGLEWVSSISSSSSYIYYADSVKGRFTISRDNAKNSLYLQMNSLRAEDTAVYYCARGAPIGAAAGWFDPWGQGTLVTVSSASTKGPSVFPLAPSSKSTSGGTAALGCLVKDYFPEPVTVSWNSGALTSGVHTFPAVLQSSGLYSLSSVVTVPSSSLGTQTYICNVNHKPSNTKVDKKVEPKSCDKTHTCPPCPAPELLGGPSVFLFPPKPKDTLMISRTPEVTCVVVDVSHEDPEVKFNWYVDGVEVHNAKTKPREEQYNSTYRVVSVLTVLHQDWLNGKEYKCKVSNKALPAPIEKTISKAKGQPREPQVCTLPPSRDELTENQVSLTCLVKGFYPSDIAVEWESNGQPENNYKTTPPVLDSDGSFFLYSWLTVDKSRWQQGNVFSCSVMHEALHNHYTQKSLSLSPG
# light: DIQMTQSPSSVSASVGDRVTITCRASQGISSWLAWYQQKPGKAPKLLIYAASSLQSGVPSRFSGSGSGTDFTLTISSLQPEDFATYYCQQGVSFPRTFGGGTKVEIKRTVAAPSVFIFPPSDEQLKSGTASVVCLLNNFYPREAKVQWKVDNALQSGNSQESVTEQDSKDSTYSLSSTLTLSKADYEKHKVYACEVTHQGLSSPVTKSFNRGEC
# notes: also called EGFR-TriNKET-3
# What was measured:
# [1] = molecular target: T6, human EGFR T790M, L858R on NCI-H1975 cells (human, UniProt P00533 25-1210); experiment: flow cytometry, NCI-H1975 cells
# T6 construct: whole, on cells; also called EGFRmut T790M, L858R
# [2] = molecular target: T1, recombinant cynomolgus monkey NKG2D; experiment: SPR
# [3] = molecular target: T2, purified recombinant human NKG2D; experiment: SPR
# recombinant rat NKG2D = molecular target: T3, recombinant rat NKG2D; experiment: SPR
# recombinant mouse NKG2D = molecular target: T4, recombinant mouse NKG2D; experiment: SPR
# [4] = molecular target: T7, purified recombinant human EGFR (human, UniProt P00533 25-645); experiment: SPR (Biacore 8K), 37 C
# T7 construct: the whole entry is named; also called recombinant human epidermal growth factor receptor
# [5] = molecular target: T8, human EGFR (wild type) on cells (human, UniProt P00533 25-1210); experiment: flow cytometry, FaDu cells
# T8 construct: whole, on cells; also called EGFRwt
# [6] = molecular target: T8, human EGFR (wild type) on cells; experiment: flow cytometry, NCI-H2172 cells
# [7] = molecular target: T8, human EGFR (wild type) on cells; experiment: flow cytometry, NCI-H1703 cells
# [8] = molecular target: T7, purified recombinant human EGFR; experiment: SPR (Biacore 8K), 37 C; remark: listed apart in the source
# [9] = molecular target: T8, human EGFR (wild type) on cells; experiment: flow cytometry, BT474 cells
# [10] = molecular target: T6, human EGFR T790M, L858R on NCI-H1975 …; experiment: cell-based or functional assay
# [11] = molecular target: T9, human EGFR L747-E749del, A750P on HCC4006 cells (human, UniProt P00533 25-1210); experiment: flow cytometry, HCC4006 cells
# T9 construct: whole, on cells; The deletion L747-E749 cannot be written as a substitution; it stands under detail; also called EGFRmut L747-E749del, A750P
# [12] = molecular target: T8, human EGFR (wild type) on cells; experiment: cell-based or functional assay
# [13] = molecular target: T8, human EGFR (wild type) on cells; experiment: flow cytometry, 786-O cells
# [14] = molecular target: T8, human EGFR (wild type) on cells; experiment: cell-based or functional assay; remark: listed apart in the source
# [15] = molecular target: T6, human EGFR T790M, L858R on NCI-H1975 …; experiment: cell-based or functional assay; remark: listed apart in the source
# [16] = molecular target: T9, human EGFR L747-E749del, A750P on …; experiment: cell-based or functional assay
# human NKG2D on cells [17] = molecular target: T5, human NKG2D on cells; experiment: flow cytometry with AF647-conjugated test article on KHYG-1 parental cells (NKG2D, no CD16a); KHYG-1 parental cell line (NKG2D+, CD16a-), titrated from 800 nM
# cynomolgus monkey FcRn = cynomolgus monkey FcRn (cynomolgus monkey, UniProt Q8SPV9 24-297; Q8SPW0 21-119, limits assumed); experiment: SPR, pH 6.0; pH 6.0
# human NKG2D on cells [18] = molecular target: T5, human NKG2D on cells; experiment: cell-based or functional assay
binder,measurement,setting,value
B1,EC50,[1],2.3 nM
same,Max FOB,[1],170 fold over background
same,Kd,[2],562 nM
same,Kd,[3],482 nM
same,binding result,recombinant rat NKG2D,no binding
same,binding result,recombinant mouse NKG2D,no binding
same,Kd,[4],4.7 nM
same,koff,[4],0.00095 s⁻¹
same,kon,[4],200000 M⁻¹ s⁻¹
same,EC50,[5],11 nM
same,Max FOB,[5],1200 fold over background
same,EC50,[6],1 nM
same,Max FOB,[6],140 fold over background
same,EC50,[7],4.6 nM
same,Max FOB,[7],730 fold over background
same,fold weaker affinity than panitumumab,[8],4.7 fold
same,EC50,[9],0.77 nM
same,Max FOB,[9],41 fold over background
same,"EC50, NK cell degranulation and cytokine production, human PBMCs with NCI-H1975",[10],0.067 nM
same,EC50,[11],1.8 nM
same,Max FOB,[11],160 fold over background
same,"EC50 of growth inhibition at 72 hours (IncuCyte), human primary keratinocytes, against cetuximab",[12],60 fold
same,"EC50 of inhibition of EGF-induced EGFR phosphorylation (AlphaLISA), human primary keratinocytes",[12],5.3 nM
same,"EC50 of tumor cell growth inhibition over 72 hours (IncuCyte), NCI-H292-NucLight Green or FaDu cells",[12],1.7 to 3.9 nM
same,EC50,[13],3.5 nM
same,Max FOB,[13],330 fold over background
same,"EC50, short-term NK cell-mediated cytotoxicity (DELFIA), 786-O",[14],0.048 nM
same,"EC50, short-term NK cell-mediated cytotoxicity (DELFIA), BT474",[14],0.29 nM
same,"EC50, short-term NK cell-mediated cytotoxicity (DELFIA), Detroit 562",[14],0.058 nM
same,"EC50, short-term NK cell-mediated cytotoxicity (DELFIA), FaDu",[14],0.011 nM
same,"EC50, short-term NK cell-mediated cytotoxicity (DELFIA), HCT116",[14],0.054 nM
same,"EC50, short-term NK cell-mediated cytotoxicity (DELFIA), HT29",[14],0.019 nM
same,"EC50, short-term NK cell-mediated cytotoxicity (DELFIA), KYSE-30",[14],0.0053 nM
same,"EC50, short-term NK cell-mediated cytotoxicity (DELFIA), NCI-H292",[14],0.0088 nM
same,"EC50, short-term NK cell-mediated cytotoxicity (DELFIA), NCI-H1703",[14],0.022 nM
same,"EC50, short-term NK cell-mediated cytotoxicity (DELFIA), NCI-H2172",[14],0.079 nM
same,"EC50, short-term NK cell-mediated cytotoxicity (DELFIA), NCI-H1975",[15],0.1 nM
same,"EC50, short-term NK cell-mediated cytotoxicity (DELFIA), HCC4006",[16],0.092 nM
same,EC50,human NKG2D on cells [17],> 600 nM
same,Kd,cynomolgus monkey FcRn,900 nM
same,"EC50, IFNγ release from NK cells (AlphaLISA) in the presence of HT29 cells",human NKG2D on cells [18],1.6 nM
same,"EC50, IFNγ release from NK cells (AlphaLISA) in the presence of NCI-H1975 cells",human NKG2D on cells [18],0.88 nM
